Measurements published in article doi:10.1101/2022.05.13.491800 (bioRxiv, 2022).

B1: Smc6 (natural protein, S. cerevisiae, UniProt Q12749 1-1114, looked up)
chain: MISTTISGKRPIEQVDDELLSLTAQQENEEQQQQRKRRRHQFAPMTQFNSNTLDEDSGFRSSSDVATADQDNFLEESPSGYIKKVILRNFMCHEHFELELGSRLNFIVGNNGSGKSAILTAITIGLGAKASETNRGSSLKDLIREGCYSAKIILHLDNSKYGAYQQGIFGNEIIVERIIKRDGPASFSLRSENGKEISNKKKDIQTVVDYFSVPVSNPMCFLSQDAARSFLTASTSQDKYSHFMKGTLLQEITENLLYASAIHDSAQENMALHLENLKSLKAEYEDAKKLLRELNQTSDLNERKMLLQAKSLWIDVAHNTDACKNLENEISGIQQKVDEVTEKIRNRQEKIERYTSDGTTIEAQIDAKVIYVNEKDSEHQNARELLRDVKSRFEKEKSNQAEAQSNIDQGRKKVDALNKTIAHLEEELTKEMGGDKDQMRQELEQLEKANEKLREVNNSLVVSLQDVKNEERDIQHERESELRTISRSIQNKKVELQNIAKGNDTFLMNFDRNMDRLLRTIEQRKNEFETPAIGPLGSLVTIRKGFEKWTRSIQRAISSSLNAFVVSNPKDNRLFRDIMRSCGIRSNIPIVTYCLSQFDYSKGRAHGNYPTIVDALEFSKPEIECLFVDLSRIERIVLIEDKNEARNFLQRNPVNVNMALSLRDRRSGFQLSGGYRLDTVTYQDKIRLKVNSSSDNGTQYLKDLIEQETKELQNIRDRYEEKLSEVRSRLKEIDGRLKSTKNEMRKTNFRMTELKMNVGKVVDTGILNSKINERKNQEQAIASYEAAKEELGLKIEQIAQEAQPIKEQYDSTKLALVEAQDELQQLKEDINSRQSKIQKYKDDTIYYEDKKKVYLENIKKIEVNVAALKEGIQRQIQNACAFCSKERIENVDLPDTQEEIKRELDKVSRMIQKAEKSLGLSQEEVIALFEKCRNKYKEGQKKYMEIDEALNRLHNSLKARDQNYKNAEKGTCFDADMDFRASLKVRKFSGNLSFIKDTKSLEIYILTTNDEKARNVDTLSGGEKSFSQMALLLATWKPMRSRIIALDEFDVFMDQVNRKIGTTLIVKKLKDIARTQTIIITPQDIGKIADIDSSGVSIHRMRDPERQNNSNFYN
B2: Smc5 (natural protein, S. cerevisiae, UniProt Q08204 1-1093, looked up)
chain: MTSLIDLGRYVERTHHGEDTEPRSKRVKIAKPDLSSFQPGSIIKIRLQDFVTYTLTEFNLSPSLNMIIGPNGSGKSTFVCAVCLGLAGKPEYIGRSKKVEDFIKNGQDVSKIEITLKNSPNVTDIEYIDARDETIKITRIITRSKRRSDYLINDYQVSESVVKTLVAQLNIQLDNLCQFLSQERVEEFARLKSVKLLVETIRSIDASLLDVLDELRELQGNEQSLQKDLDFKKAKIVHLRQESDKLRKSVESLRDFQNKKGEIELHSQLLPYVKVKDHKEKLNIYKEEYERAKANLRAILKDKKPFANTKKTLENQVEELTEKCSLKTDEFLKAKEKINEIFEKLNTIRDEVIKKKNQNEYYRGRTKKLQATIISTKEDFLRSQEILAQTHLPEKSVFEDIDIKRKEIINKEGEIRDLISEIDAKANAINHEMRSIQRQAESKTKSLTTTDKIGILNQDQDLKEVRDAVLMVREHPEMKDKILEPPIMTVSAINAQFAAYLAQCVDYNTSKALTVVDSDSYKLFANPILDKFKVNLRELSSADTTPPVPAETVRDLGFEGYLSDFITGDKRVMKMLCQTSKIHTIPVSRRELTPAQIKKLITPRPNGKILFKRIIHGNRLVDIKQSAYGSKQVFPTDVSIKQTNFYQGSIMSNEQKIRIENEIINLKNEYNDRKSTLDALSNQKSGYRHELSELASKNDDINREAHQLNEIRKKYTMRKSTIETLREKLDQLKREARKDVSQKIKDIDDQIQQLLLKQRHLLSKMASSMKSLKNCQKELISTQILQFEAQNMDVSMNDVIGFFNEREADLKSQYEDKKKFVKEMRDTPEFQSWMREIRSYDQDTKEKLNKVAEKYEEEGNFNLSFVQDVLDKLESEIAMVNHDESAVTILDQVTAELRELEHTVPQQSKDLETIKAKLKEDHAVLEPKLDDIVSKISARFARLFNNVGSAGAVRLEKPKDYAEWKIEIMVKFRDNAPLKKLDSHTQSGGERAVSTVLYMIALQEFTSAPFRVVDEINQGMDSRNERIVHKAMVENACAENTSQYFLITPKLLTGLHYHEKMRIHCVMAGSWIPNPSEDPKMIHFGETSNYSFD

Experiments:
Smc5 = target: B2; assay: SEC
Smc6 = target: B1; assay: co-purification

Binder	stoichiometry N (Smc5)	binding result (Smc6)
Nse6 (natural protein, S. cerevisiae, UniProt P40026 1-464, looked up) MGSVNSSPNEEFETVPDSQISGFDSPLIPTSVGSYFRDDDDDEKVHPNFISDPENDSLNSDEEFSSLENSDLNLSGAKAESGDDFDPILKRTIISKRKAPSNNEDEEIVKTPRKLVNYVPLKIFNLGDSFDDTITTTVAKLQDLKKEILDSPRSNKSIVITSNTVAKSELQKSIKFSGSIPEIYLDVVTKETISDKYKDWHFISKNCHYEQLMDLEMKDTAYSFLFGSSRSQGKVPEFVHLKCPSITNLLVLFGVNQEKCNSLKINYEKKENSRYDNLCTIFPVNKMLKFLMYFYSDDDNDDVREFFLKAFICLILDRKVFNAMESDHRLCFKVLELFNEAHFINSYFEIVDKNDFFLHYRLLQIFPHLQSALLRRRFSEKQGRTETIQQNIIKEFNEFFDCKNYKNLLYFILTMYGSKFIPFGPKCQVTEYFKDCILDISNETTNDVEISILKGILNLFSKIR	~1	–
B1	~1	–
B2	–	binds
Nse5 (natural protein, S. cerevisiae, UniProt Q03718 1-556, looked up) MDGALINSVLYVSPRNGAHYFVELTEKHLLAFEMLNSMCLLENYDHVLLFLECQFGKSHNLAVIPFDIILVLFTLSTLSEYYKEPILRANDPYNTSRETLSRRALKLLQKYLAILKEFDSEQYNLYDLELLRCQFFLAIDTLTPKKQKWGFDRFRRTKSESGVTYRQNASVDPELDQAKTFKNPYRSYISCLEQRNTILGNRLLNLKLNEPGEFINMILWTLSNSLQESTPLFLSSHEIWMPLLEILIDLFSCRQDYFIQHEVAQNVSKSLFVQRLSESPLAVFFESLNTRNFANRFSEYVFLNCDYKLPSDNYATPVHPVYNGENTIVDTYIPTIKCSPLYKSQKSLALRRKLIGSCFKLLLRVPDGHRLITPRIVADDVIQGISRTLASFNDILQFKKFFMTENLSQESYFIPLLAEGTLSEILKDTQECVVILTLVENLSDGVSFCNEVIGLVKSKCFAFTEQCSQASYEEAVLNIEKCDVCLLVLLRYLLHLIGTEAILDAKEQLEMLHAIEKNDSGRRQWAKALNLGNDPPLLYPIVSQMFGVHDKSVIIE	~1	–
